Laboratory results: the nanobody polyreactivity screen of Harvey et al. (2022)

Assay: yeast display, Sf9 membrane polyspecificity reagent, FACS + sequencing; frameworks hold sequencing errors
How it was run: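 Using colony PCR, genes from sorted yeast display clones were amplified, then sequenced on MiSeq at 2 × 250 and filtered by CDR length. The clones had been stained with 10% biotinylated, detergent-solubilized Sf9 membrane reagent for 1 hour at 4 °C and sorted by FACS into low and high (top ~1%) gates on anti-HA and streptavidin fluorescence. Polyreactivity labels come from the gate of origin.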

Sequence | polyreactivity (PSR sort gate)
QVQLVESGGGLVQAGGSLRLSCAASGGIFDTNAMGWYRQAPGKEREFVAAITGSGGSTYYADSVKGRFTISRDYAKNSVYLQMNSLKPEDTAVYYCAAPLSYYWVFIVRYGYDYWGQGTQVTVSS | low polyreactivity
QVQLVESGGGLVQAGGSLRLSCAASGGIFDTYAMGWYRQAPGKERELVAAISRRGGNTYYADSVKGRFTISRDNAKNTVYLQMNSLKPEDTAVYYCAAYYHGRMDYWGQGTQVTVSS | high polyreactivity
QVQLVESGGGLVQAGGSLRLSCAASGGIFGANSMGWYRQAPGKERELVATITRGGSTNYADSVKGRFTISRDNAKNTVYLQMNSLKTEDTAVYYCAARFYSRAFWPAYYYWGQGTQVTVSS | high polyreactivity
QVQLVESGGGLVQAGGSLRLSCAASGGIFGFNAMGWYRPAPGKERELVADISDGVRTNYADSVKGRFTISRDNAKNTVYLQMNSLKPEDTAVYYCATDGLFLAWAPLGALAFDYWGQGTQVTVSS | low polyreactivity
QVQLVESGGGLVQAGGSLRLSCAASGGIFGGNAMGWYRQAPGQERELVAAISRSSGSTYYADSVKGRFTISRDNAKNTVYLQMNSLKPEDSAVYYCNVEGYGRRFDYWGQGTQVTVSS | high polyreactivity
QVQLVESGGGLVQAGGSLRLSCAASGGIFGLYAMGWYRQAPGKERELVAAISWSGGSTYYADSVKGRFTISRDNAKNTVYLQMNSLKPEDTAVYYCAAEWDTNFWYDYWGQGTQVTVSS | low polyreactivity
QVQLVESGGGLVQAGGSLRLSCAASGGIFGLYTMGWYRQAPGKERELVAGISKRGTRTRYADSVKGRFTISRDHAKNTVYLQMNSLKPEDTAVYYCNADYYVSKLDYWGQGTQVTVSS | high polyreactivity
QVQLVESGGGLVQAGGSLRLSCAASGGIFGRYDMGWYRQAPGKERELVAAISKRGGSTYYADSVKGRFTISRDNAKNTVYLQMNSLKPEDTAVYYCNAAQSVELGYDYWGQGTQGTVSS | high polyreactivity
QVQLVESGGGLVQAGGSLRLSCAASGGIFGSYAMGWYRQAPGKERELVADITQSGGRTRYADSVKGRFTISRDNAKNTVYLQMNSLKPEDSAVYYCNAQDVDSGDDYDYWGQGTQVTVSS | low polyreactivity
QVQLVESGGGLVQAGGSLRLSCAASGGIFGYYAMGWYRQAPGKEREFVAAISVSGGSTYYADSVKGRFTISRDNAKNTVYLQMNSLKPEDTAVYYCAADVIVLRPGEYDYWGQGTQVTVSS | low polyreactivity
QVQLVESGGGLVQAGGSLRLSCAASGGIFGYYAMGWYRQAPGTEREFVAAITARGGRTYYADSVKGRFTISRDNAKNTVYLQMNSLKPEDTAVYDCAAYSPVWGRYYHRVERDYWGQGTQVTVSS | high polyreactivity
QVQLVESGGGLVQAGGSLRLSCAASGGIFGYYVMGRYRQAPGKERELVAVITRGGSTNYADSVKGRFTISRDNAKNTVYLQMNSLKPEDTAVYYCAKDVPYRRVRSEYWGQGTQVTVSS | low polyreactivity
QVQLVESGGGLVQAGGSLRLSCAASGGIFGYYVMGWYRQAPGKERELVAVITRGGSTNYADSLKGRFTISRDNAKNTVYLQMNSLKPEDTAVYYCNAGPAGYYDYDYWGQGTQVTVSS | low polyreactivity
QVQLVESGGGLVQAGGSLRLSCAASGGIFHNYAMGWYRQAPGKERELVAAITTSDGSTYYEDSVKGRFTISRDIAKNTVYLEMNSLKPEDTAVYYCNAEYLYTVYFDDGGFIMDYWGQGTQVTVSS | low polyreactivity
QVQLVESGGGLVQAGGSLRLSCAASGGIFIGYAMGWYRPAPGKERELVARIRSSGGTTYYADSVKGRFTISRDNAKNTVYLQMNSLKPEDTAVYYCAKRTSSSWAYGPYYYWGQGTQVTVSS | high polyreactivity
QVQLVESGGGLVQAGGSLRLSCAASGGIFLPYAMGWYRQAPGKERELVAGITTSGGSTYYADSVKGRFTISRDNAKNTVYLQMNSLKPEDTAVYYCAKKSSLFKHVVRYDYWGQGTQVTVSS | low polyreactivity

Sequence | polyreactivity (PSR sort gate)
QVQLVESGGGLVQAGGSLRLSCAASGGIFNINAMGWYRQAPGKERELVAGINWSDTGTYYADSVKGRFTISRDNAKNTVYLQMNSLKPEDTAVYDCAVSGYPVYITYVSYDYDYWGQGTQVTVSS | low polyreactivity
QVQLVESGGGLVQAGGSLRLSCAASGGIFNVNAMGWYRQAPWKERELVAAIDWSSSSTDYADSVKGRFTISRDNAKNTVYLQMNSLKPEDTAVYYCAKLAGYSPTFEYWGQGTQVTVSS | low polyreactivity
QVQLVESGGGLVQAGGSLRLSCAASGGIFPAYAMGWYRQAPGKERELVASISANGGRTYYADSVKGRFTISRDNAKNTVYLQMNSLKPEDTAVYYCNASSRSGSWRFYYWGQGTQVTVSS | high polyreactivity
QVQLVESGGGLVQAGGSLRLSCAASGGIFPGYAMGWYRQAPGKERELVAAISGSGSSTYYADSVKGRFTISRDNAKNTVYLQMNSLKPEDTAVYYCAVYYTRGYDYWGQGTQVTVSS | high polyreactivity
QVQLVESGGGLVQAGGSLRLSCAASGGIFPVYAMGWSRQAPGKERELVATITSDGDTNYADSVKGRFTISRDNAKNTVYLQMNSLKPEDTAVYYCNKDLDYIIVQPHSPELEYWGQGTQVTVSS | low polyreactivity
QVQLVESGGGLVQAGGSLRLSCAASGGIFPWNAMGWYRQAPGKERELVAAIDNTDGTHYADSVKGRFTISRDNAKNTVYLQMNSQKPEDTAVYYCAAEYYYFVYPFYNWGYEYWGQGTQVTVSS | high polyreactivity
QVQLVESGGGLVQAGGSLRLSCAASGGIFQLNAMGWYSQAPGKERELVAAISGSGGSTYYADSVKGRFTISRDNAKNTVYLQMNSLKPEDTAVYYCAVRLTITDYDYWGQGTQVTVSS | low polyreactivity
QVQLVESGGGLVQAGGSLRLSCAASGGIFRRYPMGWYRQATGKERELVAAISKRGGSTYYADSVKGRFTISRDNAKNTVYLQMNSLKPEDTAFYYCAKQRGGQPRSSTYYYWGQGTQVTVSS | high polyreactivity
QVQLVESGGGLVQAGGSLRLSCAASGGIFRVYAMGWYRQAPGKERELVAAISRSGSSTYYADSVKGRFTISRDNAKNTVYLQMNSLKPEDTAVYYCNAYSQYWLGNNYWGQGSQVTVSS | high polyreactivity
QVQLVESGGGLVQAGGSLRLSCAASGGIFRYYAMGLYRQAPGKERELVASIRRSGGRTYYADSVKGRFTISRDNAKYTVYFQMNSLKPEDTAVYYCNADRLIVTMNSWGQGTQVTVSS | low polyreactivity
QVQLVESGGGLVQAGGSLRLSCAASGGIFRYYAMGWYRQAPGKERELVAAISRSTRTYYADSVKGRFTISRDNAKITVYLQMNSLKPEDTEVYYCAAKYVSRRYSRYNYWGQGTQVSVSS | high polyreactivity
QVQLVESGGGLVQAGGSLRLSCAASGGIFSAYDMGWYRQAPGTERELVAAINSGGSTNYADSVKGRFTISRDNAKNTVYLQMNSLKPEDTAVYYCAAAKVSWFGLKYYYWGQGTQVTVSS | high polyreactivity
QVQLVESGGGLVQAGGSLRLSCAASGGIFSAYSMGWYRKAPGKERELVASITTDGGITYYADSVKGRFTISRDNAKNTVYLQMNSLKPEDTAVYYCAVLQYYYPYYYWGQGTQVTVSS | low polyreactivity
QVQLVESGGGLVQAGGSLRLSCAASGGIFSGNDMGWYRQAPGKERELVATITSDGSTNYSDSVKGRFTYSRDNAKNTVYLQMNSLKPEDTAVYYCAADGLYWWMYYWGQGTQVTVSS | low polyreactivity
QVQLVESGGGLVQAGGSLRLSCAASGGIFSRYAMGWYRQAPGKEREFVAAISFSGASTYYADSVKGRFTISRDNAKYTVYLQMNSLKPEDTAVYYCAAYWDAEGRRYTRLDYWGQGTQVTVSS | low polyreactivity
QVQLVESGGGLVQAGGSLRLSCAASGGIFSTYTMGWSRQAPGKERELVAAITTGNSTYYADSVKGRFTISRDNAKNTVYLQMNSLKPEDTAVYYCAAFAASRDYYRRLIHDGYDYWGQGTQVTVSS | low polyreactivity
